# Laboratory results published in IntAct's records for PubMed 29892012.
# B1: Ubiquitin domain-containing protein 2 (Homo sapiens), Q8WUN7 (parent)
# chain: MGGCVGAQHDSSGSLNENSEGTGVALGRNQPLKKEKPKWKSDYPMTDGQLRSKRDEFWDTAPAFEGRKEIWDALKAAAHAFESNDHELAQAIIDGANITLPHGALTECYDELGNRYQLPVYCLAPPINMIEEKSDIETLDIPEPPPNSGYECQLRLRLSTGKDLKLVVRSTDTVFHMKRRLHAAEGVEPGSQRWFFSGRPLTDKMKFEELKIPKDYVVQVIVSQPVQNPTPVEN
# partner: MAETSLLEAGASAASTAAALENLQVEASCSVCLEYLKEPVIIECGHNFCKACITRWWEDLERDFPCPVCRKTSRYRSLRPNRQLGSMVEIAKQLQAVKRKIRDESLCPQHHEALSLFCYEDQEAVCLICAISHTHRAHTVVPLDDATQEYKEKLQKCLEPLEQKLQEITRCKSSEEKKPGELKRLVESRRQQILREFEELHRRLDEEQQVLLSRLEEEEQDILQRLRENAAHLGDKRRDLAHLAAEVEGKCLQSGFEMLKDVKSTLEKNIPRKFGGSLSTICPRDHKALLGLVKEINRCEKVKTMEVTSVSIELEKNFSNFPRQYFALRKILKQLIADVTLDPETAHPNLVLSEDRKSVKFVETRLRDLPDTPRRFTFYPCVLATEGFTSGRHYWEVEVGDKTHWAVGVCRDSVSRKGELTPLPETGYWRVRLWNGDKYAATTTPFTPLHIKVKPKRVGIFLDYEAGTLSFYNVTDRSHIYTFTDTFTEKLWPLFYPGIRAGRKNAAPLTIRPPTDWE
# B2: TBC1 domain family member 22B (Homo sapiens), Q9NU19 (parent)
# chain: MAAENSKQFWKRSAKLPGSIQPVYGAQHPPLDPRLTKNFIKERSKVNTVPLKNKKASSFHEFARNTSDAWDIGDDEEEDFSSPSFQTLNSKVALATAAQVLENHSKLRVKPERSQSTTSDVPANYKVIKSSSDAQLSRNSSDTCLRNPLHKQQSLPLRPIIPLVARISDQNASGAPPMTVREKTRLEKFRQLLSSQNTDLDELRKCSWPGVPREVRPITWRLLSGYLPANTERRKLTLQRKREEYFGFIEQYYDSRNEEHHQDTYRQIHIDIPRTNPLIPLFQQPLVQEIFERILFIWAIRHPASGYVQGINDLVTPFFVVFLSEYVEEDVENFDVTNLSQDMLRSIEADSFWCMSKLLDGIQDNYTFAQPGIQKKVKALEELVSRIDEQVHNHFRRYEVEYLQFAFRWMNNLLMRELPLRCTIRLWDTYQSEPEGFSHFHLYVCAAFLIKWRKEILDEEDFQGLLMLLQNLPTIHWGNEEIGLLLAEAYRLKYMFADAPNHYRR
# partner: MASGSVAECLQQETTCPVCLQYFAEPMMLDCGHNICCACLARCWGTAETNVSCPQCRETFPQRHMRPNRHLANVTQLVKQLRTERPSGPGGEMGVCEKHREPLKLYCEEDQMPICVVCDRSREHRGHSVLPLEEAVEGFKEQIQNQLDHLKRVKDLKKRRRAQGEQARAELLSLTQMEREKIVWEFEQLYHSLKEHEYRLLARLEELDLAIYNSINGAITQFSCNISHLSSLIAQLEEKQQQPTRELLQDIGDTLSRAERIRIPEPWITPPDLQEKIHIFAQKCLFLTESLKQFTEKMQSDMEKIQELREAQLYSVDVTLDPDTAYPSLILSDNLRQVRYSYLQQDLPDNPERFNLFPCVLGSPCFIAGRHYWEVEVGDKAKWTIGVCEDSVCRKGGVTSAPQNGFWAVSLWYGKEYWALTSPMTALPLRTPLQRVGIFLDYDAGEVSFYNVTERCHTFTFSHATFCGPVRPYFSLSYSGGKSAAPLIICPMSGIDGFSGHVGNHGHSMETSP
# B3: Coiled-coil alpha-helical rod protein 1 (Homo sapiens), Q8TD31 (parent)
# chain: MFPPSGSTGLIPPSHFQARPLSTLPRMAPTWLSDIPLVQPPGHQDVSERRLDTQRPQVTMWERDVSSDRQEPGRRGRSWGLEGSQALSQQAEVIVRQLQELRRLEEEVRLLRETSLQQKMRLEAQAMELEALARAEKAGRAEAEGLRAALAGAEVVRKNLEEGSQRELEEVQRLHQEQLSSLTQAHEEALSSLTSKAEGLEKSLSSLETRRAGEAKELAEAQREAELLRKQLSKTQEDLEAQVTLVENLRKYVGEQVPSEVHSQTWELERQKLLETMQHLQEDRDSLHATAELLQVRVQSLTHILALQEEELTRKVQPSDSLEPEFTRKCQSLLNRWREKVFALMVQLKAQELEHSDSVKQLKGQVASLQEKVTSQSQEQAILQRSLQDKAAEVEVERMGAKGLQLELSRAQEARRRWQQQTASAEEQLRLVVNAVSSSQIWLETTMAKVEGAAAQLPSLNNRLSYAVRKVHTIRGLIARKLALAQLRQESCPLPPPVTDVSLELQQLREERNRLDAELQLSARLIQQEVGRAREQGEAERQQLSKVAQQLEQELQQTQESLASLGLQLEVARQGQQESTEEAASLRQELTQQQELYGQALQEKVAEVETRLREQLSDTERRLNEARREHAKAVVSLRQIQRRAAQEKERSQELRRLQEEARKEEGQRLARRLQELERDKNLMLATLQQEGLLSRYKQQRLLTVLPSLLDKKKSVVSSPRPPECSASAPVAAAVPTRESIKGSLSVLLDDLQDLSEAISKEEAVCQGDNLDRCSSSNPQMSS
# partner: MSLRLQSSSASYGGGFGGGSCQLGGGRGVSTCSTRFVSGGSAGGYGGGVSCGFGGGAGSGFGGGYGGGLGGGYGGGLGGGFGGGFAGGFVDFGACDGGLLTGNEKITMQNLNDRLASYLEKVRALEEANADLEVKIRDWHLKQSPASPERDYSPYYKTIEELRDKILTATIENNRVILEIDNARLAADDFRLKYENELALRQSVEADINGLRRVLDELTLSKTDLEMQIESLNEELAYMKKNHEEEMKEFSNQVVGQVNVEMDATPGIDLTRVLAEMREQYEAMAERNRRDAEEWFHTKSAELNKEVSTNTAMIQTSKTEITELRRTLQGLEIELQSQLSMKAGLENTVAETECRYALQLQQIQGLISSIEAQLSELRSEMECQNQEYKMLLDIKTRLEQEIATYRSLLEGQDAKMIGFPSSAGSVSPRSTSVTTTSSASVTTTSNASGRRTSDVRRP
# B4: Myotubularin-related protein 9 (Homo sapiens), Q96QG7 (parent)
# chain: MEFAELIKTPRVDNVVLHRPFYPAVEGTLCLTGHHLILSSRQDNTEELWLLHSNIDAIDKRFVGSLGTIIIKCKDFRIIQLDIPGMEECLNIASSIEALSTLDSITLMYPFFYRPMFEVIEDGWHSFLPEQEFELYSSATSEWRLSYVNKEFAVCPSYPPIVTVPKSIDDEALRKVATFRHGGRFPVLSYYHKKNGMVIMRSGQPLTGTNGRRCKEDEKLINATLRAGKRGYIIDTRSLNVAQQTRAKGGGFEQEAHYPQWRRIHKSIERYHILQESLIKLVEACNDQTHNMDRWLSKLEASNWLTHIKEILTTACLAAQCIDREGASILIHGTEGTDSTLQVTSLAQIILEPRSRTIRGFEALIEREWLQAGHPFQQRCAQSAYCNTKQKWEAPVFLLFLDCVWQILRQFPCSFEFNENFLIMLFEHAYASQFGTFLGNNESERCKLKLQQKTMSLWSWVNQPSELSKFTNPLFEANNLVIWPSVAPQSLPLWEGIFLRWNRSSKYLDEAYEEMVNIIEYNKELQAKVNILRRQLAELETEDGMQESP
# B5: E3 ubiquitin-protein ligase LNX (Homo sapiens), Q8TBB1 (parent)
# chain: MNQPESANDPEPLCAVCGQAHSLEENHFYSYPEEVDDDLICHICLQALLDPLDTPCGHTYCTLCLTNFLVEKDFCPMDRKPLVLQHCKKSSILVNKLLNKLLVTCPFREHCTQVLQRCDLEHHFQTSCKGASHYGLTKDRKRRSQDGCPDGCASLTATAPSPEVSAAATISLMTDEPGLDNPAYVSSAEDGQPAISPVDSGRSNRTRARPFERSTIRSRSFKKINRALSVLRRTKSGSAVANHADQGRENSENTTAPEVFPRLYHLIPDGEITSIKINRVDPSESLSIRLVGGSETPLVHIIIQHIYRDGVIARDGRLLPGDIILKVNGMDISNVPHNYAVRLLRQPCQVLWLTVMREQKFRSRNNGQAPDAYRPRDDSFHVILNKSSPEEQLGIKLVRKVDEPGVFIFNVLDGGVAYRHGQLEENDRVLAINGHDLRYGSPESAAHLIQASERRVHLVVSRQVRQRSPDIFQEAGWNSNGSWSPGPGERSNTPKPLHPTITCHEKVVNIQKDPGESLGMTVAGGASHREWDLPIYVISVEPGGVISRDGRIKTGDILLNVDGVELTEVSRSEAVALLKRTSSSIVLKALEVKEYEPQEDCSSPAALDSNHNMAPPSDWSPSWVMWLELPRCLYNCKDIVLRRNTAGSLGFCIVGGYEEYNGNKPFFIKSIVEGTPAYNDGRIRCGDILLAVNGRSTSGMIHACLARLLKELKGRITLTIVSWPGTFL
# partner: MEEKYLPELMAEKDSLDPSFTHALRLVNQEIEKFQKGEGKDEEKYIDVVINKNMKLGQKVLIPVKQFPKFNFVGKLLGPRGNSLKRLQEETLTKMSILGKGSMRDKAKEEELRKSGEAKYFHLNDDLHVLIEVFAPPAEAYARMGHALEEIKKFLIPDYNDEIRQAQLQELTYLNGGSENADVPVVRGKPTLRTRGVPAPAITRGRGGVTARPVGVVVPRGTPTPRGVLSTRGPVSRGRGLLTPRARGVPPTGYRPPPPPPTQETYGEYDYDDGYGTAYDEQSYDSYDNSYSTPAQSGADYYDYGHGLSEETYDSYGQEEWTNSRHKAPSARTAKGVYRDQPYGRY
# Variants of: B1
# Settings: with tri39_human TRIM39, Q9HCM9
row,Variant,effect of a mutation on the interaction
1,R180W,with no effect

# Variants of: B2
# Settings: with tri27_human TRIM27, P14373
row,Variant,effect of a mutation on the interaction
1,A349T,disrupting interaction strength

# Variants of: B3
# Settings: with KRT13, P13646
row,Variant,effect of a mutation on the interaction
1,W337R,disrupting interaction strength

# Variants of: B4
# Settings: with emil1_human EMILIN1, Q9Y6C2
# Chain of emil1_human EMILIN1, Q9Y6C2 (Q9Y6C2 whole entry): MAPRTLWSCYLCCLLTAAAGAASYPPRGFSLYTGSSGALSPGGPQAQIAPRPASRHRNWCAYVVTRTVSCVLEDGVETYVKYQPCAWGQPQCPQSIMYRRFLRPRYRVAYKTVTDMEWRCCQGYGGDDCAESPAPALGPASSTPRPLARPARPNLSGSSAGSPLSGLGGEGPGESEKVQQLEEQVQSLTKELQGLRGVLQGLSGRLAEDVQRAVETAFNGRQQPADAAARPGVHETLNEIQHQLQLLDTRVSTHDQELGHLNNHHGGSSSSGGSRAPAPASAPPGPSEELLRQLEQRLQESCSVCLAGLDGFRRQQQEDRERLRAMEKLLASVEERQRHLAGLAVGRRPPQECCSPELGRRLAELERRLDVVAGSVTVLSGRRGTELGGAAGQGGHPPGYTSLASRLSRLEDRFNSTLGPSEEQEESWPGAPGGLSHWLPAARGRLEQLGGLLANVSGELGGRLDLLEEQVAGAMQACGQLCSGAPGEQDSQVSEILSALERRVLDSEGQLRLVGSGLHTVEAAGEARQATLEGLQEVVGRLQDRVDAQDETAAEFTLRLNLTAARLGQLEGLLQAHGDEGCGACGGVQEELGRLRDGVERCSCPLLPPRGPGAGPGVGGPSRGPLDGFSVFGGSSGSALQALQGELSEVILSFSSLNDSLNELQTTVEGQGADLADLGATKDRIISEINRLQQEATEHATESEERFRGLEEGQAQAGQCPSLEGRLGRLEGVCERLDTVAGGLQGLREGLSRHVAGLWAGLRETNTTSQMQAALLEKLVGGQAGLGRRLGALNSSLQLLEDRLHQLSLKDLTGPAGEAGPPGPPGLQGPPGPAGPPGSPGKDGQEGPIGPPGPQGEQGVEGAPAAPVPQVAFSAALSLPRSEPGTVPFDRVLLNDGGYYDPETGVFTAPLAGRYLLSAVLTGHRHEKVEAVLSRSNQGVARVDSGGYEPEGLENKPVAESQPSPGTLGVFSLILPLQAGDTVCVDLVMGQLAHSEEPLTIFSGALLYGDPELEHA
row,Variant,effect of a mutation on the interaction
1,R359S,with no effect

# Variants of: B5
# Settings: with khdr3_human KHDRBS3, O75525
row,Variant,effect of a mutation on the interaction
1,E295K,disrupting interaction strength
